According to the DeepSol protein solubility set:

Test: soluble on expression in E. coli; label from the status in PepcDB or PDB records

Sequence	soluble on expression in E. coli
MGSDKIHHHHHHMLCAISGKVPRRPVLSPKSRTIFEKSLLEQYVKDTGNDPITNEPLSIEEIVEIVPSAQQASLTESTNSATLKANYSIPNLLTSLQNEWDAIMLENFKLRSTLDSLTKKLSTVMYERDAAKLVAAQLLMEKNEDSKDLPKSSQQAVAITREEFLQGLLQSSRDFVARGKLKAPKWPILKNLELLQAQNYSRNIKTFPYKELNKSMYYDKWVCMCRCEDGALHFTQLKDSKTITTITTPNPRTGGEHPAIISRGPCNRLLLLYPGNQITILDSKTNKVLREIEVDSANEIIYMYGHNEVNTEYFIWADNRGTIGFQSYEDDSQYIVHSAKSDVEYSSGVLHKDSLLLALYSPDGILDVYNLSSPDQASSRFPVDEEAKIKEVKFADNGYWMVVECDQTVVCFDLRKDVGTLAYPTYTIPEFKTGTVTYDIDDSGKNMIAYSNESNSLTIYKFDKKTKNWTKDEESALCLQSDTADFTDMDVVCGDGGIAAILKTNDSFNIVALTP	not soluble
MAHHHHHHMTSQTTTAVFSSDLQTFIVTKYDPLLSIVKELNDKLQNSEKDKYHLEKRIIKLEKQMVLLLEKLEVSDILFDNEEKEKKEEPRKNQKIESEENLLAPWLFSCQLGTPLSSLQVLLEFNVNNTIELNVKLWKREEDMWINVLEDISSNYNNYLPDSLSLLDLRKAARKCLLNICMNEILIVLRNVPGKSQALYNTTTMTLVAILASAIYEAWKRIELTDPVSLGRIVLVLDGMNCINKKREDVGSRLRAGNKKLKIEPLN	not soluble
MARPLKQGIDYFPLSVDFLRDIKVRKIKRACGPYTVEILLCLLGNIYRETGYYIGWDEDTMFLVADEVGAKEGLVEETVNKAVQVGFFNQEKFNEYRILTSNGIQKRYLEATKKRKEVVISDIYLVNDTIKDEETLVNGVDNEQSKVNKSKVDKSKVNKNNKEKPAVQLSSEKDFLENPLGDKKTAELIAYYSKNVSLATPVNMTNLAYDLKDFNGDLDLLKEAINICSSNVKTYAYFAGILKQWRANGINTHADFLKKVNKKSKQKNKRDSEPPLNDYSGLF	not soluble
MGSDKIHHHHHHMELQDKYIRFDWAVKRLLRHKANFGVLEGFLTVLIGDEIHIVEILESEGNQQTENDKFNRVDIKALNSKNEIVIIEIQNTRELYYLERILYGVAKAITEHISLGETYYKVKKIYSISILYFDIGHGTDYLYHGQNIFKGVHTGDFLQVSTREKDAIVPRMPSEIYPEYFLIRVNEFNKVAVTPLEEWIEYLKTGIIRPDTTAPGLGEAREKLKYYSMTPQERHAYDEHLSALMIQNDVLDSAKLEGKIEGKIEGKIEGRLEGRAEGREEGREEGIKEGVLRNARRMKEKGFSTEDIMEITGLTFEEVSQL	not soluble
MSLEDGYKVEVGKNAYLPCSYTLPTSGTLVPMCWGKGFCPWSQCTNELLRTDERNVTYQKSSRYQLKGDLNKGDVSLIIKNVTLDDHGTYCCRIQFPGLMNDKKLELKLDIKAALVPR	soluble
SEQKSTASGTCGGKPAERGPLAGHMPSSRPHRVDFCWVPGSDPGTFDGSPWLLDRFLAQLGDYMSFHFEHYQDNISRVCEILRRLTGRAQAWAAPYLDGDLPLPDDYELFCQDLKEVVQDPNSFAEYHAVVTCPLPLASSQLPVAPQLPVVRQYLARFLEGLALDMGTAPRSLPAAMATPAVSGSNSVSRSALFEQQLTKESTPGPKEPPVLPSSTCSSKPGPVEPASSQPEEAAPTPVPRLSESANPPAQRPDPAHPGGPKPQKTEEEVLETEGDQEVSLGTPQEVVEAPETPGEPPLSPGF	soluble
PELPEVETSRRGIEPHLVGATILHAVVRNGRLRWPVSEEIYRLSDQPVLSVQRRAKYLLLELPEGWIIIHLGMSGSLRILPEELPPEKHDHVDLVMSNGKVLRYTDPRRFGAWLWTKELEGHNVLTHLGPEPLSDDFNGEYLHQKCAKKKTAIKPWLMDNKLVVGVGNIYASESLFAAGIHPDRLASSLSLAECELLARVIKAVLLRSIEQGGTTLKDFLQSDGKPGYFAQELQVYGRKGEPCRVCGTPIVATKHAQRATFYCRQCQK	soluble
MGSDKIHHHHHHMVSPVVARIIELLPDSCVGFIGKRILNMYLNKYADINVHGMENLKGIDKPIMFIGNHLSNSDGLVLNKVLKDYDVTFVAGVKLKGDAITNLGTYCVKTTEIKPNTADKDGIYRVIDILKSNHNILMFPEGTRSRTGAMIEAKRGPLFIAKLSKAIIVPVGICGSEKLLPINKEGNMSNENFHHAKVEVNIGKPFYFDKRMKEESKKDYEKRALDNAMYKIAELIPENYRGVYSDIKKVL	not soluble
